Experimental data published in paper PMC3578147.

Target: Rev-independent (RI) HIV-1 Gag-CFP (HIV-1)
Assay: FRET or BRET

Substance	FRET efficiency [%]
HIV.Rev-YFP (HIV-1 Rev fused to YFP) (from UniProt P04618 1-116) (natural protein)	16.4
YFP-HIV.NC (HIV-1 NC protein fused to YFP) (domain or fragment)	7.8
